Assay results published in patent US20050112690A1.

Molecular target: extra-domain B (ED-B) of fibronectin, as present in arteriosclerotic plaque of aorta specimens of WHHL rabbits (rabbit (WHHL rabbit aorta tissue)) (UniProt Q28749)
Experiment: in vitro perfusion (Ussing chamber) of WHHL rabbit aorta specimens with radiolabeled scFv, 20 min at room temperature, gamma counting

UniProt Q28749, sequence (Q28749 1221-1309 limits assumed): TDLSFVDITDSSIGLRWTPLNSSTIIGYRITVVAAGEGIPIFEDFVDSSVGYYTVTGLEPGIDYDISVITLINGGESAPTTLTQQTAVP

rating factor (bound amount on arteriosclerotic vs non-arteriosclerotic aorta sections): 2.8
Substance: 125I-labeled L19 derivative ZK212667 (L19) (scFv)
